Assay results as given in patent US20170298109A1 (SAPPORO MEDICAL UNIVERSITY, published 2017).

B1: VLS peptide (peptide)
peptide: VLSEQFTKI
notes: synthetic 9-mer
B2: HAL peptide (peptide)
peptide: HALEENVMV
notes: synthetic 9-mer
B3: SVLE peptide (peptide)
peptide: SVLEEEVEL
notes: synthetic 9-mer
B4: VLE peptide (peptide)
peptide: VLEEEVELV
notes: synthetic 9-mer
B5: VLT peptide (peptide)
peptide: VLTVSNSNV
notes: synthetic 9-mer
B6: SLAE peptide (peptide)
peptide: SLAETAGLI
notes: synthetic 9-mer
B7: ILQ peptide (peptide)
peptide: ILQKHGENV
notes: synthetic 9-mer
B8: KLA peptide (peptide)
peptide: KLAVSLAET
notes: synthetic 9-mer
B9: ALE peptide (peptide)
peptide: ALEENVMVA
notes: synthetic 9-mer
B10: YAS peptide (peptide)
peptide: YASRDTYKL
notes: synthetic 9-mer
B11: MAA peptide (peptide)
peptide: MAATEISVL
notes: synthetic 9-mer
B12: RMM peptide (peptide)
peptide: RMMLVSAWL
notes: synthetic 9-mer
B13: GTM peptide (peptide)
peptide: GTMKIHILQK
notes: synthetic 10-mer
B14: TVY peptide (peptide)
peptide: TVYKCSKCGK
notes: synthetic 10-mer
B15: KQL peptide (peptide)
peptide: KQLLNAHFRK
notes: synthetic 10-mer
B16: ASG peptide (peptide)
peptide: ASGKGRRTRK
notes: synthetic 10-mer
B17: KLLF peptide (peptide)
peptide: KLLFIGTIK
notes: synthetic 9-mer
B18: TVL peptide (peptide)
peptide: TVLTLKASFK
notes: synthetic 10-mer
B19: RMS peptide (peptide)
peptide: RMSSFNRHMK
notes: synthetic 10-mer
B20: GLI peptide (peptide)
peptide: GLIPTVLTLK
notes: synthetic 10-mer
B21: CSY peptide (peptide)
peptide: CSYASRDTYK
notes: synthetic 10-mer
B22: NTH peptide (peptide)
peptide: NTHTGTRPYK
notes: synthetic 10-mer
B23: AAA peptide (peptide)
peptide: AAAEEASTTK
notes: synthetic 10-mer
B24: SVL peptide (peptide)
peptide: SVLSEQFTK
notes: synthetic 9-mer

What follows are binders tested against T1, HLA-A*02:01 with β2-microglobulin (human) (assay: folding test: HLA-monomer formation, gel filtration).
T1 construct: Soluble recombinant HLA used in the folding test and in tetramer reagents; also called HLA-A2

Binder | binding result
B1 | binds
B2 | binds
B3 | binds
B4 | binds
B5 | binds
B6 | binds
B7 | binds
B8 | binds
B9 | binds
B10 | binds

Each binder was assayed against T1, HLA-A*02:01 with β2-microglobulin (assay: folding test: HLA-monomer formation from HLA, β2-microglobulin and peptide, gel filtration).

Binder | binding result
B11 | no binding (tested: 30 µM peptide)

The binders below were run against HLA-A*24:02 with β2-microglobulin (human) (assay: HLA tetramer reagent made of the RMM peptide and the HLA type, staining of induced CTLs, flow cytometry).

Binder | binding result
B12 | binds

Each binder was assayed against T1, HLA-A*02:01 with β2-microglobulin in the same assay as above.

Binder | binding result
B12 | binds

These binders were tested against T2, HLA-A*11:01 with β2-microglobulin (human) (assay: folding test: HLA-monomer formation after 1, 3 and 7 days, gel filtration).
T2 construct: Soluble recombinant HLA used in the folding test and in tetramer reagents

Binder | binding result
B13 | binds
B14 | binds
B15 | binds
B16 | binds
B17 | binds
B18 | binds
B19 | binds
B20 | binds
B21 | binds
B22 | binds
B23 | binds
B24 | binds
